Reference: publication PMC10117100, “The E2F4/p130 Repressor Complex Cooperates with Oncogenic ΔNp73α To Inhibit Gene Expression in Human Papillomavirus 38 E6/E7-Transformed Keratinocytes and in Cancer Cells” (mSphere, 2023)

T1: Gluc1-TAp73α (human, UniProt O15350 1-636)
T1 construct: also called full-length TAp73α; source: HEK293T, transfected (pSPICA vector), in cells; not shown: Gluc1 (fragment of Gaussia princeps luciferase), N-terminal, kept
T1 sequence (looked up): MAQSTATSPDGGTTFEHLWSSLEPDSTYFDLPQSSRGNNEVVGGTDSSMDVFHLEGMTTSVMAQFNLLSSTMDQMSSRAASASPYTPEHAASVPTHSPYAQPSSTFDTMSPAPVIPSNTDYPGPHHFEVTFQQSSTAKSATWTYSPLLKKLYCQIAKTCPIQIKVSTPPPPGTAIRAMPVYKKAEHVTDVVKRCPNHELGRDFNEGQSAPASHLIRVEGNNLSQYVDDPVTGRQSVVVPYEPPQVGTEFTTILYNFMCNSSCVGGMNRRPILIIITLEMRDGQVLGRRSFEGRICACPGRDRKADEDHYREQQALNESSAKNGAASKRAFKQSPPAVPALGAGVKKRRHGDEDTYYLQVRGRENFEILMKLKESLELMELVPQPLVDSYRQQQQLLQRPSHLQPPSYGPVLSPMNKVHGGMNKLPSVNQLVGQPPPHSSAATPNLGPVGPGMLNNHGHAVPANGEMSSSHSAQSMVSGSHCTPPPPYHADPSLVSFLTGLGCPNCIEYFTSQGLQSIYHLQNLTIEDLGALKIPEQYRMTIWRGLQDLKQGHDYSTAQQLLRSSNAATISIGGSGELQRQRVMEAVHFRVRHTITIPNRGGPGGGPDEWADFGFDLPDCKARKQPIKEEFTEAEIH

T2: Gluc1-ΔNp73α FL (human, UniProt O15350-8 1-587)
T2 construct: ΔNp73α isoform of p73, whole ORF, 587 residues by the printed numbering; numbers count on: ΔNp73α; source: HEK293T, transfected (pSPICA vector), in cells; not shown: Gluc1 (fragment of Gaussia princeps luciferase), N-terminal, kept
T2 sequence (looked up): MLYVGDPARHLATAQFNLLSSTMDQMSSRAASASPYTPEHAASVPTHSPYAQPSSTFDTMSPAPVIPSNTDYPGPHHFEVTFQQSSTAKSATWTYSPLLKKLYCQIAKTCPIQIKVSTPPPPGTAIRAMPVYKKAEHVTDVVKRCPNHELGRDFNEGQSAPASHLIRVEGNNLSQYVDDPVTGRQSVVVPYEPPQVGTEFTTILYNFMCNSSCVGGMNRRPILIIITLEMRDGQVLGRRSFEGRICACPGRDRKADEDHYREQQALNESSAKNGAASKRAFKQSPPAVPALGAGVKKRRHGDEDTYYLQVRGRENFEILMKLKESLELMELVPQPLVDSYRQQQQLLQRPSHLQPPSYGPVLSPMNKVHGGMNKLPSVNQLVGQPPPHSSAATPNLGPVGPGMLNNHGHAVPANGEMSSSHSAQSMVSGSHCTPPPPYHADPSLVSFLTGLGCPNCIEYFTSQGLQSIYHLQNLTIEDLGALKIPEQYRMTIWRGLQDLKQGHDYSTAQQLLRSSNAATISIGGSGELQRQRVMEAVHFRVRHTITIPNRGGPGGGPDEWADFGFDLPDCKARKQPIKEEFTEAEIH

B1: Gluc2-DP1 (natural protein, human, UniProt Q14186 1-410, looked up)
chain: MAKDAGLIEANGELKVFIDQNLSPGKGVVSLVAVHPSTVNPLGKQLLPKTFGQSNVNIAQQVVIGTPQRPAASNTLVVGSPHTPSTHFASQNQPSDSSPWSAGKRNRKGEKNGKGLRHFSMKVCEKVQRKGTTSYNEVADELVAEFSAADNHILPNESAYDQKNIRRRVYDALNVLMAMNIISKEKKEIKWIGLPTNSAQECQNLEVERQRRLERIKQKQSQLQELILQQIAFKNLVQRNRHAEQQASRPPPPNSVIHLPFIIVNTSKKTVIDCSISNDKFEYLFNFDNTFEIHDDIEVLKRMGMACGLESGSCSAEDLKMARSLVPKALEPYVTEMAQGTVGGVFITTAGSTSNGTRFSASDLTNGADGMLATSSNGSQYSGSRVETPVSYVGEDDEEDDDFNENDEDD
notes: human DP1, whole ORF (bought from Addgene); source: HEK293T, transfected (pSPICA vector), in cells; not shown: Gluc2 (fragment of Gaussia princeps luciferase), N-terminal, kept
B2: Gluc2-E2F4 FL (natural protein)
chain: not shown
notes: human E2F4, whole ORF (bought from Addgene), 413 residues by the printed numbering; source: HEK293T, transfected (pSPICA vector), in cells; not shown: Gluc2 (fragment of Gaussia princeps luciferase), N-terminal, kept

Key:
Assay in all cases: split reporter (BiFC, NanoBiT); Gaussia princeps protein complementation assay (GPCA): Gluc1 and Gluc2 N-terminal fusions co-transfected in HEK293T, luminescence of lysates after 48 h as normalized luminescence ratio (NLR); pairs count as interacting if NLR is above 5
Details in all cases: partners not purified
Gluc1-E2F4 = target: T3, Gluc1-E2F4 (human, UniProt Q16254 1-413)
T3 construct: human E2F4, whole ORF (bought from Addgene); source: HEK293T, transfected (pSPICA vector), in cells; not shown: Gluc1 (fragment of Gaussia princeps luciferase), N-terminal, kept
T3 sequence (Q16254 whole entry, the tested form may be a part): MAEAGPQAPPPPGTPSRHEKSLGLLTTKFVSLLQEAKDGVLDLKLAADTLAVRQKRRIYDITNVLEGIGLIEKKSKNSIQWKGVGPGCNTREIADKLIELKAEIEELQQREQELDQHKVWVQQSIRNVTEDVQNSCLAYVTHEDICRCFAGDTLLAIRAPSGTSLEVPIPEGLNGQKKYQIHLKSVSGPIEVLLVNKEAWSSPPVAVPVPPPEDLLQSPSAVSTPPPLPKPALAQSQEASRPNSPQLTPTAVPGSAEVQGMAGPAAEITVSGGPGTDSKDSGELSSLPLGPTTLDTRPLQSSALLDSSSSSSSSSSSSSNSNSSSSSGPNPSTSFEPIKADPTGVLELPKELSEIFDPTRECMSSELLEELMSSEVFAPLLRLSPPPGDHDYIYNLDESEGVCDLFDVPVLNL

Gluc1-TAp73α = target: T1, Gluc1-TAp73α
Gluc1-ΔNp73α FL = target: T2, Gluc1-ΔNp73α FL

Row | Binder | normalized luminescence ratio (NLR) (Gluc1-E2F4) | binding response relative to that obtained with ΔNp73α (Gluc1-TAp73α) [%] | normalized luminescence ratio (NLR) (Gluc1-ΔNp73α FL)
1 | B1 | ~500 |  | 
2 | B2 |  | ~50 | > 20
